The text below walks through data of patent publication US20190321455A1 (KOREA RESEARCH INSTITUTE OF BIOSCIENCE AND BIOTECHNOLOGY, published 2019).

Assay [1] concerns the target T1, MAVS, endogenous protein of RAW264.7 cells (UniProt Q8VCF0 1-503).
T1 sequence (looked up): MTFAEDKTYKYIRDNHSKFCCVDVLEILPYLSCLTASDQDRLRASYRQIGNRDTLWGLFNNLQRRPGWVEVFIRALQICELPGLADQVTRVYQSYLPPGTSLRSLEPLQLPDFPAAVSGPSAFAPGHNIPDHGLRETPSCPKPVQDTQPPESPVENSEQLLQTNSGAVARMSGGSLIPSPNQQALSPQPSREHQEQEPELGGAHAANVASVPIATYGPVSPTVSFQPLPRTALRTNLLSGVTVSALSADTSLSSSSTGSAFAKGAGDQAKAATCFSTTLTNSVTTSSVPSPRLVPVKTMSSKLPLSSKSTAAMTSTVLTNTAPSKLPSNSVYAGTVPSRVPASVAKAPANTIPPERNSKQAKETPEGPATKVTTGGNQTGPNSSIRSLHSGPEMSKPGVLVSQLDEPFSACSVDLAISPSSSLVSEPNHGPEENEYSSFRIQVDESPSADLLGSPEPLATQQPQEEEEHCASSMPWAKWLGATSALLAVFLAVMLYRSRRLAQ
Briefly: endogenous immunoprecipitation with anti-PCBP2 antibody, PR8-infected RAW264.7 cells.

In assay [2] the target is T2, EPRS, endogenous protein of RAW264.7 cells (UniProt Q8CGC7 1-1512, phospho-Ser990 induced by PR8 infection).
T2 construct: Endogenous protein in cell lysates; The mouse origin is inferred from the cell line
T2 sequence (Q8CGC7 whole entry): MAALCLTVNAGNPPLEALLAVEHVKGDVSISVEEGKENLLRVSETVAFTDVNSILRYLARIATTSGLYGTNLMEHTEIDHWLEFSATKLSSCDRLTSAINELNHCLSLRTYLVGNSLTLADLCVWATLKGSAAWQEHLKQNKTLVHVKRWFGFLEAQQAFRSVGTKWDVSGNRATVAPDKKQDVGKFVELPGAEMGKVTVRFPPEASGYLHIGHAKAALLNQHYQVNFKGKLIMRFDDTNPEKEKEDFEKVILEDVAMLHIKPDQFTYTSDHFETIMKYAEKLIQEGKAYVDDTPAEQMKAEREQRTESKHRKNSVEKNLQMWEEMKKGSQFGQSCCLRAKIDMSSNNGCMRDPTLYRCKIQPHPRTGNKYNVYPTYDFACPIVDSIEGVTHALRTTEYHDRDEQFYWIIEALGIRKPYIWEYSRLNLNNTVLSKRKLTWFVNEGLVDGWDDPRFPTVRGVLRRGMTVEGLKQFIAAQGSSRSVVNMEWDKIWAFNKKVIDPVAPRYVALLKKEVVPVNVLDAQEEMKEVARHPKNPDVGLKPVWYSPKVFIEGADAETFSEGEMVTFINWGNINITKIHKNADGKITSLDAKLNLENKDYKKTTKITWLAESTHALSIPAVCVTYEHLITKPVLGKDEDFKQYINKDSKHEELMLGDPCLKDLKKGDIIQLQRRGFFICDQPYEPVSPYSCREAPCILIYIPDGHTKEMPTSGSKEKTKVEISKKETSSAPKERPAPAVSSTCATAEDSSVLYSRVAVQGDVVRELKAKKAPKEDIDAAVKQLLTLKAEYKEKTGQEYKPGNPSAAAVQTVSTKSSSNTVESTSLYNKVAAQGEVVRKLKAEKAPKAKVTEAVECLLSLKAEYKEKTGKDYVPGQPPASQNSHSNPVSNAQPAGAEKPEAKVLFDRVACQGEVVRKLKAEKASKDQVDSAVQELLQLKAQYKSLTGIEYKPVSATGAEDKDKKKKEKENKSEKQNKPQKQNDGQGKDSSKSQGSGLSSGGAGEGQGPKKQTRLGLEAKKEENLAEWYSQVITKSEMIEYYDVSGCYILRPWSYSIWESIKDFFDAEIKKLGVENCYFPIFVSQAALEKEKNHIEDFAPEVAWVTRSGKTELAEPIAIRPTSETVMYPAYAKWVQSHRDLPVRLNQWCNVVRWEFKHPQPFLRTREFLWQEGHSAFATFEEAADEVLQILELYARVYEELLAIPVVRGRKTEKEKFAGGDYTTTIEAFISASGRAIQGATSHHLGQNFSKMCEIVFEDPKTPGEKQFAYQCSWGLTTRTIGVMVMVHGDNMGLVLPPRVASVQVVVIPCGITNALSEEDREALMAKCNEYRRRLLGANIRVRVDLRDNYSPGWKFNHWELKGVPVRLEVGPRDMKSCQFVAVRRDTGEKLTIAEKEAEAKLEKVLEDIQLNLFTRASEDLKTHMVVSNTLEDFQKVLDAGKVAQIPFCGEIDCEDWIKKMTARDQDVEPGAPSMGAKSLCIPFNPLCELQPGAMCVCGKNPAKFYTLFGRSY
Described as above.

In assay [3] the target is T3, Strep-EPRS (Strep-tagged full-length glutamyl-prolyl-tRNA synthetase, wild type) (Homo sapiens (Human), UniProt P07814 1-1512).
T3 construct: Expressed in HEK293T cells and pulled down with Strep-Tactin; Mass spectrometry found phospho-Ser886, and phospho-Ser990 after PR8 infection; also called Strep-EPRS WT; not shown: Strep tag
Kind of assay: Strep precipitation of 293T lysates expressing Strep-EPRS and forms of GST-PCBP2, anti-GST immunoblot.

The target of assay [4] is T4, MAVS-FLAG (mitochondrial antiviral-signaling protein expressed in 293T cells) (UniProt Q7Z434 1-540).
T4 construct: also called exogenous MAVS; not shown: FLAG tag
T4 sequence (Q7Z434 whole entry): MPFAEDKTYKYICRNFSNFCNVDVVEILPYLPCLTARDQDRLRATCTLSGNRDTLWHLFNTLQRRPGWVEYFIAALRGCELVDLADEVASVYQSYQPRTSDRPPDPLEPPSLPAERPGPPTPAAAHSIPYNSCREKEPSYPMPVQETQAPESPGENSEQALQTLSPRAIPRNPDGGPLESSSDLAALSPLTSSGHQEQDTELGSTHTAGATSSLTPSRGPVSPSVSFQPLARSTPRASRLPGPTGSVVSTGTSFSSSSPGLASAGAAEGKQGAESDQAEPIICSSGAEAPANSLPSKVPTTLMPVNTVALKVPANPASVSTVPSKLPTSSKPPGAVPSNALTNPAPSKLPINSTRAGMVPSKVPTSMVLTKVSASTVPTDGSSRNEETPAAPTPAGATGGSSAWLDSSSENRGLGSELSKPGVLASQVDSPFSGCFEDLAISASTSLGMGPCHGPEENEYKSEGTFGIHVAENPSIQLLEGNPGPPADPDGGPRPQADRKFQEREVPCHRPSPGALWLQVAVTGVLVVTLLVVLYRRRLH
Kind of assay: anti-FLAG co-IP of 293T lysates expressing MAVS and forms of GST-PCBP2, anti-GST immunoblot. (In general: A western blot detects proteins with antibodies after separation by electrophoresis.)

Assay [5] deals with T5, Strep-tagged EPRS mono-phosphomimetic S990D (Homo sapiens (Human), UniProt P07814 1-1512).
T5 construct: Expressed in 293T cells; also called EPRS S990D; not shown: Strep tag
Kind of assay: Strep precipitation from 293T cells, immunoblot.

In assay [6] the target is T6, His-tagged EPRS (aa 1-196), purified from E. coli (Homo sapiens (Human), UniProt P07814 1-196).
T6 construct: also called GST and L1 regions of EPRS; not shown: hexahistidine tag
T6 sequence: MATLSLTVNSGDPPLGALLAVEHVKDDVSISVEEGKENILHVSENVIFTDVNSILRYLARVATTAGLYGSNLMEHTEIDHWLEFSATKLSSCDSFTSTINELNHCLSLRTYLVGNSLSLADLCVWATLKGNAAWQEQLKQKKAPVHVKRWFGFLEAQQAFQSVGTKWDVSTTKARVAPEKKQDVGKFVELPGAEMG
Kind of assay: in vitro His-tag (Ni-NTA) precipitation with purified proteins, Coomassie.

Assay [7] concerns the target T7, His-tagged EPRS (aa 1-168; GST-like domain alone), purified from E. coli (Homo sapiens (Human), UniProt P07814 1-168).
T7 construct: not shown: hexahistidine tag
T7 sequence: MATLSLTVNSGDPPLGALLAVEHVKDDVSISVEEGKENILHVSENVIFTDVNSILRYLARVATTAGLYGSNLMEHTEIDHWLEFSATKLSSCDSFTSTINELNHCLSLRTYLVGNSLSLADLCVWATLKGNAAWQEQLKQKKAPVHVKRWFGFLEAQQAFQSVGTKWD
Briefly: in vitro His-tag (Ni-NTA) precipitation with purified proteins.

Assay [8] concerns the target T3, Strep-EPRS (Strep-tagged full-length …). Kind of assay: Strep-EPRS complexes from PR8-infected 293T cells, mass spectrometry.
For assay [9], the target named is T8, EPRS, endogenous protein of U937 cells (human, UniProt P07814 1-1512, phospho-Ser990 induced by PR8 infection; phospho-Ser886 also detected).
T8 construct: Endogenous protein immunoprecipitated with anti-EPRS antibody; also called glutamyl-prolyl-tRNA synthetase
Briefly: endogenous co-IP with anti-EPRS antibody from PR8-infected U937 cells, anti-GAPDH immunoblot.

Assay [10] has as its target T8, EPRS, endogenous protein of U937 cells. Kind of assay: endogenous co-IP with anti-EPRS antibody, PR8-infected U937 cells.

B1: PCBP2, endogenous protein of RAW264.7 cells (other, UniProt Q61990 1-362, looked up)
chain: MDTGVIEGGLNVTLTIRLLMHGKEVGSIIGKKGESVKKMREESGARINISEGNCPERIITLAGPTNAIFKAFAMIIDKLEEDISSSMTNSTAASRPPVTLRLVVPASQCGSLIGKGGCKIKEIRESTGAQVQVAGDMLPNSTERAITIAGIPQSIIECVKQICVVMLESPPKGVTIPYRPKPSSSPVIFAGGQDRYSTGSDSASFPHTTPSMCLNPDLEGPPLEAYTIQGQYAIPQPDLTKLHQLAMQQSHFPMTHGNTGFSGIESSSPEVKGYWAGLDASAQTTSHELTIPNDLIGCIIGRQGAKINEIRQMSGAQIKIANPVEGSTDRQVTITGSAASISLAQYLINVRLSSETGGMGSS
notes: also called PBP2
B1: the binding result in assay [1] and in assay [2] was “binds” throughout.

B2: GST-PCBP2 N-terminal KH1 domain (aa 1-81), expressed in 293T cells (other, UniProt Q15366 1-81, looked up)
chain: MDTGVIEGGLNVTLTIRLLMHGKEVGSIIGKKGESVKKMREESGARINISEGNCPERIITLAGPTNAIFKAFAMIIDKLEE
notes: range 1-81; also called PCBP2 KH1; not shown: GST tag
In the case of B2, the binding result in assay [3] and in [4] was “binds” in each case.

B3: AIMP3 (ARS-interacting multifunctional protein 3), endogenous protein of human cells (U937, 293T) (other, UniProt O43324 2-174, looked up)
chain: AAAAELSLLEKSLGLSKGNKYSAQGERQIPVLQTNNGPSLTGLTTIAAHLVKQANKEYLLGSTAEEKAIVQQWLEYRVTQVDGHSSKNDIHTLLKDLNSYLEDKVYLTGYNFTLADILLYYGLHRFIVDLTVQEKEKYLNVSRWFCHIQHYPGIRQHLSSVVFIKNRLYTNSH
As for B3, the binding result in assay [5] is “no binding”.

B4: GST-fused PCBP2 KH1 (aa 11-82), purified from E. coli (other, UniProt Q15366 11-82, looked up)
chain: NVTLTIRLLMHGKEVGSIIGKKGESVKKMREESGARINISEGNCPERIITLAGPTNAIFKAFAMIIDKLEED
notes: range 11-82; also called PCBP2 KH1 (aa 11-82) domain; not shown: GST
As to B4, the binding result in assay [6] is recorded as “binds”; in [7], “no binding”.

B5: GAPDH (glyceraldehyde-3-phosphate dehydrogenase), endogenous protein of human cells (U937, 293T) (enzyme)
chain: not shown
Take B5: the binding result in [8] and in assay [9] was “no binding” throughout.

B6: GST-PCBP2 linker region, expressed in 293T cells (other, UniProt Q15366 168-279, looked up)
chain: ETLSQSPPKGVTIPYRPKPSSSPVIFAGGQDRYSTGSDSASFPHTTPSMCLNPDLEGPPLEAYTIQGQYAIPQPDLTKLHQLAMQQSHFPMTHGNTGFSGIESSSPEVKGYW
notes: domain: linker region; not shown: GST tag
In the case of B6, the binding result in [3] is given as “no binding”.

B7: PCBP2, endogenous protein of human cells (293T, U937) (other, UniProt Q15366 1-365, looked up)
chain: MDTGVIEGGLNVTLTIRLLMHGKEVGSIIGKKGESVKKMREESGARINISEGNCPERIITLAGPTNAIFKAFAMIIDKLEEDISSSMTNSTAASRPPVTLRLVVPASQCGSLIGKGGCKIKEIRESTGAQVQVAGDMLPNSTERAITIAGIPQSIIECVKQICVVMLETLSQSPPKGVTIPYRPKPSSSPVIFAGGQDRYSTGSDSASFPHTTPSMCLNPDLEGPPLEAYTIQGQYAIPQPDLTKLHQLAMQQSHFPMTHGNTGFSGIESSSPEVKGYWGLDASAQTTSHELTIPNDLIGCIIGRQGAKINEIRQMSGAQIKIANPVEGSTDRQVTITGSAASISLAQYLINVRLSSETGGMGSS
notes: also called PBP2
Consider B7, for which the binding result in assay [10] is “binds”.

B8: MRS (methionyl-tRNA synthetase), endogenous protein of 293T cells (enzyme, UniProt P56192 1-900, looked up)
chain: MRLFVSDGVPGCLPVLAAAGRARGRAEVLISTVGPEDCVVPFLTRPKVPVLQLDSGNYLFSTSAICRYFFLLSGWEQDDLTNQWLEWEATELQPALSAALYYLVVQGKKGEDVLGSVRRALTHIDHSLSRQNCPFLAGETESLADIVLWGALYPLLQDPAYLPEELSALHSWFQTLSTQEPCQRAAETVLKQQGVLALRPYLQKQPQPSPAEGRAVTNEPEEEELATLSEEEIAMAVTAWEKGLESLPPLRPQQNPVLPVAGERNVLITSALPYVNNVPHLGNIIGCVLSADVFARYSRLRQWNTLYLCGTDEYGTATETKALEEGLTPQEICDKYHIIHADIYRWFNISFDIFGRTTTPQQTKITQDIFQQLLKRGFVLQDTVEQLRCEHCARFLADRFVEGVCPFCGYEEARGDQCDKCGKLINAVELKKPQCKVCRSCPVVQSSQHLFLDLPKLEKRLEEWLGRTLPGSDWTPNAQFITRSWLRDGLKPRCITRDLKWGTPVPLEGFEDKVFYVWFDATIGYLSITANYTDQWERWWKNPEQVDLYQFMAKDNVPFHSLVFPCSALGAEDNYTLVSHLIATEYLNYEDGKFSKSRGVGVFGDMAQDTGIPADIWRFYLLYIRPEGQDSAFSWTDLLLKNNSELLNNLGNFINRAGMFVSKFFGGYVPEMVLTPDDQRLLAHVTLELQHYHQLLEKVRIRDALRSILTISRHGNQYIQVNEPWKRIKGSEADRQRAGTVTGLAVNIAALLSVMLQPYMPTVSATIQAQLQLPPPACSILLTNFLCTLPAGHQIGTVSPLFQKLENDQIESLRQRFGGGQAKTSPKPAVVETVTTAKPQQIQALMDEVTKQGNIVRELKAQKADKNEVAAEVAKLLDLKKQLAVAEGKPPEAPKGKKKK
notes: 293T cells are a human line
As for B8, the binding result in assay [5] is listed as “no binding”.
